Experimental data taken from patent US6683059B1, “Mini-E1A gene and gene products” (priority 1996, dated 2004).

Tested on: subclone of SKOV-3.ip1
Assay: long-term survival study, E1A-Cterm lipid:DNA complex, aggressive SKOV-3.ip1 subclone in nude mice
Type: in vivo, mouse
Protocol: FIG. 9. Comparison of tumor suppressor activity of full-length E1A and mini-E1ACterm. Mice bearing tumors from an aggressive subclone of the SKOV-3.ip1 cell line were injected with the treatment compounds indicated. […] As also shown, while all nine control animals were dead by that time, none of the animals receiving full-length E1A or mini-E1ACterm had died. Mini-E1ACterm was equivalent to full-length E1A in tumor suppression.
Long-term survival studies were performed using the E1A-Cterm mini-gene in a tumor engraftment model and DNA-lipid formulations as described above. In this study, it appears that the subclone of SKOV-3.ip1 used may have been even more aggressive in tumor formation than the SKOV-3.ip1 parent used to induce tumors in the nude mice since no control mice survived for more than about 35 days. The protocol was otherwise as in the long-term study above except that: (i) 10 mice were used in each group receiving E1A formulations and 9 mice were used in the control group; (ii) 5% dextrose was used for control injections; and (iii) a lipid:DNA ratio of 10:1 w as used for the treatment formulations however, as above, each injection contained 15 μg of DNA.

B1: mini-E1ACterm: mini-E1A construct in pcDNA1.1 encoding E1A 186-289; expected polypeptide about 80 amino acids, 209-289, SEQ ID NO:1 (nucleic acid)
chain: CCTGTGTCTGAACCTGAGCCTGAGCCCGAGCCAGAACCGGAGCCTGCAAGACCTACCCGCCGTCCTAAAATGGCGCCTGCTATCCTGAGACGCCCGACATCACCTGTGTCTAGAGAATGCAATAGTAGTACGGATAGCGTGGACTCCGGTCCTTCTAACACACCTCCTGAGAGACACCCGGTGGTCCCGCTGTGCCCCATTAAACCAGTTGCCGTGAGAGTTGGTGGGCGTCGCCAGGCTGTGGAATGTATCGAGGACTTGCTTAACGAGCCTGGGCAACCTTTGGACTTGAGCTGTAAACGCCCCAGGCCATAA
modifications: pcDNA1.1 vector
- animals alive when the last dextrose control mouse died (about day 35, lipid:DNA 10:1, 15 μg DNA per injection, 10 mice per group): 100%
- tumor masses in surviving mice after 21 weeks (visual inspection, the 4 surviving mice): no signs of such tumor masses
